Test results reported in article PMC3934309.

Target: DsbC-MPK4 fusion (construct pT7-DsbC-MPK4) (E. coli | Leishmania major) (UniProt P0AEG6)
Experiment: SEC; analytical size exclusion chromatography of the IMAC purified fraction of the uncleaved DsbC-MPK4 fusion; peak at 8.4 ml; apparent molecular weight

“DsbC-MPK4 fusion (construct pT7-DsbC-MPK4) (from UniProt P0AEG6 21-236; Q4QD66 1-363)” gave a stoichiometry N of 10.
